The Immune Epitope Database (IEDB)

Columns and labels:
Experiment in all cases: IEDB peptide-MHC binding, purified MHC/competitive/radioactivity; filed as Kd, often an IC50 or EC50 that approximates it; ≥ and ≤ were set here for values at or beyond the usual limits of such assays
[1] = target: HLA-A*03:01
[2] = target: HLA-A*11:01
[3] = target: HLA-A*31:01
[4] = target: HLA-A*33:01
[5] = target: HLA-A*68:01
[6] = source organism: Vaccinia virus WR
[7] = source organism: Dengue virus 4 Philippines/H241/1956
[8] = source organism: SARS coronavirus Tor2
[9] = source organism: Dengue virus 1 Brazil/97-11/1997
[10] = source organism: Dengue virus 2 Jamaica/1409/1983
[11] = source organism: Mammarenavirus machupoense
[12] = source organism: Dengue virus 2 Peru/IQT2913/1996
[13] = source organism: Vaccinia virus Copenhagen
[14] = source organism: Dengue virus 3 Martinique/1243/1999
[15] = source organism: Mammarenavirus brazilense

Sequence | Kd [1, 6] [nM] | Kd [2, 6] [nM] | Kd [3, 6] [nM] | Kd [4, 6] [nM] | Kd [5, 6] [nM] | other results
AALFMYYAKR | 312 | 178 | 16.8 | 837 | 33.1 | 
AIKILTGFRK |  |  |  |  |  | Kd [1, 7]: 103 nM; Kd [2, 7]: 1760 nM
AITPTIEDDK | 487 | 115 | ≥ 47900 | ≥ 42600 | 6640 | 
ALLSTDGNK |  |  |  |  |  | Kd [1, 8]: 52.5 nM; Kd [2, 8]: 494 nM; Kd [3, 8]: 10200 nM; Kd [4, 8]: ≥ 77700 nM; Kd [5, 8]: ≥ 23700 nM
ATKIIALNK |  |  |  |  |  | Kd [1, 8]: 1360 nM; Kd [2, 8]: 334 nM; Kd [3, 8]: 840 nM; Kd [4, 8]: ≥ 77700 nM; Kd [5, 8]: 15900 nM
ATMLEYVRY | 1700 | 23.5 | 3410 | ≥ 77700 | ≥ 29400 | 
ATTVITPMMR |  |  |  |  |  | Kd [2, 9]: 141 nM; Kd [3, 9]: 125 nM; Kd [5, 9]: 368 nM
AVHDFFKFR |  |  |  |  |  | Kd [1, 8]: 7140 nM; Kd [2, 8]: 7.56 nM; Kd [3, 8]: 4.9 nM; Kd [4, 8]: 273 nM; Kd [5, 8]: 11.3 nM
AVILQNAWK |  |  |  |  |  | Kd [2, 10]: 128 nM
AVLMHKGKR |  |  |  |  |  | Kd [3, 10]: 64.7 nM
CVDIPGIPK |  |  |  |  |  | Kd [1, 8]: 149 nM; Kd [2, 8]: 19.9 nM; Kd [3, 8]: ≥ 10000 nM; Kd [4, 8]: ≥ 37900 nM; Kd [5, 8]: 102 nM
DFYDFAVSK |  |  |  |  |  | Kd [1, 8]: 4110 nM; Kd [2, 8]: 8940 nM; Kd [3, 8]: 12400 nM; Kd [4, 8]: 9.36 nM; Kd [5, 8]: 56.9 nM
DIICEDAMY | ≥ 78000 | ≥ 77900 | ≥ 77900 | ≥ 20200 | 4550 | 
DLIVTFRER | 12700 | 8140 | 509 | 14.8 | 19.8 | 
DSIPISELSR | ≥ 44900 | 986 | 4140 | 25.5 | 12.3 | 
EIITGNKVK | ≥ 78000 | 1200 | ≥ 77900 | ≥ 77700 | 233 | 
EMVDELVTRK | ≥ 70100 | 8710 | ≥ 70000 | ≥ 70000 | 1210 | 
EWMLIAAKMK |  |  |  |  |  | Kd [1, 11]: 5950 nM; Kd [2, 11]: ≥ 24100 nM; Kd [3, 11]: 1260 nM; Kd [4, 11]: 49 nM; Kd [5, 11]: 3530 nM
FTDISMSLYK | 55.9 | 8.84 | 9320 | 4210 | 24.9 | 
FVASFRLFAR |  |  |  |  |  | Kd [1, 8]: 94.2 nM; Kd [2, 8]: 50 nM; Kd [3, 8]: 6.64 nM; Kd [4, 8]: 14.1 nM; Kd [5, 8]: 0.106 nM

Sequence | Kd [1, 6] [nM] | Kd [2, 6] [nM] | Kd [3, 6] [nM] | Kd [4, 6] [nM] | Kd [5, 6] [nM] | other results
FVCKHSMVDR |  |  |  |  |  | Kd [3, 12]: 117 nM; Kd [4, 12]: 122 nM; Kd [5, 12]: 1050 nM
GILKKLSSIK | 13.9 | 375 | 5480 | ≥ 70000 | ≥ 20100 | 
GLLFRRLTSR |  |  |  |  |  | Kd [1, 9]: 170 nM; Kd [3, 9]: ≥ 53700 nM
GLTTHCTKLR | 5180 | 4630 | 511 | 4210 | 12100 | 
GSTAEQLSK | 307 | 14 | ≥ 77900 | ≥ 77700 | ≥ 43000 | 
GVIADYNYK |  |  |  |  |  | Kd [1, 8]: 23.8 nM; Kd [2, 8]: 5.97 nM; Kd [3, 8]: 126 nM; Kd [4, 8]: 4910 nM; Kd [5, 8]: 72 nM
HINALEYIIK | 117 | 87.9 | 1520 | 200 | 35.9 | 
IAVSTANIFR |  |  |  |  |  | Kd [4, 7]: 1050 nM; Kd [5, 7]: 9.46 nM
IFAFIDFSK |  |  |  |  |  | Kd [1, 13]: 78.2 nM; Kd [2, 13]: 20.5 nM; Kd [3, 13]: 251 nM; Kd [4, 13]: 42.6 nM; Kd [5, 13]: 8.56 nM
IFREIASSMK | 198 | 1570 | 425 | 467 | 3470 | 
IITPVVFYR | 59.2 | 0.322 | 1.08 | 6.62 | 0.0181 | 
IMVASDVCK | 150 | 369 | 991 | 3480 | 408 | 
ISARALKAY | 542 | 334 | 9600 | 16400 | 2470 | 
ISIMIEEVMR |  |  |  |  |  | Kd ([5]; source organism: Dengue virus 1 Singapore/S275/1990): 82.3 nM
ITNITTDSR |  |  |  |  |  | Kd [5, 14]: 26.3 nM
ITPDDGLGLR | ≥ 70100 | 16200 | 11600 | 9910 | 69.2 | 
ITVDDDGTMR |  |  |  |  |  | Kd [5, 14]: 77.3 nM
ITVNPIVTEK |  |  |  |  |  | Kd [1, 10]: 24.1 nM; Kd [2, 10]: 69.2 nM; Kd [5, 10]: 154 nM
IVNNQESNK |  |  |  |  |  | Kd [1, 13]: 132 nM; Kd [2, 13]: 147 nM; Kd [3, 13]: 1180 nM; Kd [4, 13]: ≥ 77700 nM; Kd [5, 13]: 111 nM
KCSDHYICLK |  |  |  |  |  | Kd [1, 15]: 276 nM; Kd [2, 15]: 1890 nM; Kd [3, 15]: 482 nM; Kd [4, 15]: 8220 nM; Kd [5, 15]: ≥ 70100 nM
